Results from paper PMC5791537 (Biomolecular NMR assignments, 2017).

Target: C-domain fragment of human calmodulin (residues 76-148), calcium-free (apo) (human, UniProt P0DP23 77-149)
Test: NMR backbone assignment and chemical shift perturbation

B1: Human voltage-dependent sodium channel NaV1.2 IQ motif peptide (residues 1901-1927 with N-terminal GPGS) (peptide)
chain: GPGSKRKQEEVSAIIIQRAYRRYLLKQKVKK
Does B1 bind?
Result: binds
